This passage reports protein production results from a protein production outcome set (Wang et al. 2014).

The data set can be described thus: label from the status in PepcDB records.
Consider “MEHSSMPLWLSSFEEEIDTYIFISSRDNKLYLGILRTYDQHGNVFLTHCVEKIIVPEKNYFSDVYVGNLIIRGDNIAYFGSVDEEKYCKMFDYTIKNDNDEEHNNMDMIKNKKEYSSSENIILVYKPINHILKFIPENNADSSIFEN”, for which the protein production result is listed as “failed”. Turning to “MEIFLWKDNRFHHQLRLLWHMCRGRNGTACLLLMKHFAAVRYLKLCTNHLWEVAGNMMNSNMNRRNVQYRQDRQPMPQPAVQPQCQPSCQTCPGTCNDGSMMTGNNGNPQMMPAGGPGPERRPMPVPDHQTLMNEIYQLGFAIVETVLYLDTHPSDADALNYYNQIKRRYSHVMEMYSREYGPLLNTNVMNDNYWSWVATPMPWEVEGC”, the protein production entry was “failed”. The value for “MEIGIIGTGNIGGTLARKLIAAGHQVRVANSKGIHGVQSFADEIGATAVDVYGAVKGADAIILSIPLPALASLPNGFFDDLPETVPLIDTSNYYPGLRDPLIPEIDDGMTESVWVSQQLSHPVIKAFNNILAWSLAELGTPKGSASRLAIAVAGDNATLKQIVMNLVDDTGFDAIDAGSLEESWRQQPSTPAYCCDYDAETMKKGLTAAVRGEAASKRDRLPLEHHHHHH” was “failed”. On to “MEIKQPAELSHVLTMTHRNLLKMWHNPDNVSDVVIQPIIFTLLFGYLFGGAIAGSVQAYLPMLVTGILIQSILNAASGSGQQLREDINAGVFDRFKTLPISPIVPLAGQLVGDVFRLLISGLMALVTAFMMGWRPIVSPLVLIGVLLLAVFVGWSLSWVFALVGLMVKNAALIGSLSMIIILVLTFLSNAFIPTKTLPHLLQTIVRLNPVSLTITAMRTILRTGHWGPDAFGVLLSGFLIIVIFMPLTVLAYRRFG”, for which the protein production entry is on record as “failed”. Consider “MEILKKTGKFLLGVVIGVAIMMFADRYYVKGKRLIADNLPKEPVEYVNPYMGNISHLLVPTYPTVHLPNSMLRVYPERGDFTGDRLGGLPLIVTSHRGSSAFNLSPYQGDEAGLKPVIQYSYDREKIVPYRYQVYLDEANIEVDYAPSHQSAVYSLTFEKDGPAYLVFNSRNGELKCDGNTVSGFQYVDKKTKVYLYAETDKTPEKSGVLASGTVKYGKSSVEGKDAALTLAFSGQKEIGVRYGISFISTEQARKNLEREINSYDVSAIARIGRNEWNDALGKIQVSGGSENDKTVFYTSLYRCYERPVNLSEDGKYYSAFDGKIHEDGGRSFYTDDWIWDTYRATHPLRILIDKERETDIINSYLLMAQQMGTNWMPTFPEVTGDSRRMNSNHAVATVIDAWRKGVRGFDLEKAYEAARKGIEEKTLIPWSAAPSGWLDEFYKEHGYIPALKPGEKETVADVSPWEKRQPVAVTLGTAYDEWCLSQIAAELGKKEDAEYFLARSYNYRNLFNPETRFFHPKDKDGKFIEGVDYRYSGGLGARDYYDENNGYIYRWDVQHNIGDLVSLIGGNEVFTAALDSMFDTPLGMSKWQFYSFLPDHTGNVGMFSMANEPSLHIPYLYNYAGQPWKTQKRIRVLLDQWFRNDLMGVPGDEDGGGMSAFVVFSMMGFYPVTPGSPTYNIGSPVFSDVKIDLGGGNVFEIVADGASHDNKYVQSATLNGEELSGPWFDHSRITAGGVLSLKMGPKANKKWGIGNPPPSVGPMQK”, for which the protein production entry is listed as “failed”. Turning to “MEILVVAVGILVDRLTKIWALDKLKKVQDIPIIKNFFDLTYVENRGAAWGIFSGKTLVLSAVTLLVLSAIIVYMIKYRPKSKLARISLSLVISGALGNLYDRVFYKYVVDLFSLHYKDIYYYPVFNVADICVVVGTIMIAIFIVLKDDKKDGKV”, the protein production result is listed as “failed”. For “MEIQEMAKRFSPEFKQQAIDYALSNSHEPIATIAQKLGVGYSTLDKWIREANPVGSSKRQLSPEQQRILELEKEVKQLREANDILKKAHVYFLTDHAKKSTR” the value was “failed”; for “MEISCLLNEIKASIRYENQIVHIEETPARDACYAPLELEVRIKAALSGTGIEALYSHQAEAIEKVREGKDLVLCTSTASGKSLTYMIPVFEAVLKDPEATSLYISPLNALVNDQLKAFLEFEGALNSGAGIARYTGALSADQKRKIRDGKTNIVFTNPEMVHMSFLAWHHLWRRFFSNLRFIVVDESHYYRGVIGSNMANVLRRLLRVAEYYGASPQFICCSATIGNPEDHTETLLGREAVVVENNGSLQGPQKFVFWNPPLYMNGRGCTVRRSSFSEASALFTRAVQAGLQTLAFTRSRQGVERMYRTCMELLRDRELPSAICPYRSGYFDREREEIERKMNSGELRGVISTNALELGIDIGGLDVCILDGYPGTVMSARQQAGRAGRSGNESLVLMVAGTNALDQYYMRNPADFFARSSENAVLNPKNPYILAGHLLCAAKEIPLRESDEKYFGGGYSRVVELLEAEGLLAGSDMKYSTDPFPYKQVSLRGIDNNTYSLLAFEGERSFPIEKDIEETLAFRECHPGAVYIHRGESFYINRIDHEKREIHAIKTHDSYYTKPMIDSSVVVQETYAAKPLLHAPEVEVGLGEVEVTDRIAGYRKIRTHSDETMSAHEIEMPPITLQTVALWLKLPDRLQEMIGDHKLDFAGGIHAVEHAIISMYPLHLLVDRSDVGGVSTPSHPDLGSKSGIFIYDGHRGGVGYAEKGYDLIEEVLEGTLKAIESCPCESGCPGCIQSPKCGNNNEPLDKHAAIMLLHELLGKAPYIPPEKKEKHLSEARARKTIPQERKSSGDALDRVRRQLRRENINQEPQAGKEKKEKTFIATDENGGMIGVVSAPTPEKAAAKTFHKKLAGQQGATKEKPLEIRIRDLGAGSDYHFRAWTELFEAAENGDPESKEKKAVKKLFIRKMS”, “failed”.

On to “MEISTKTLHFIEEHREDDTRTLALQSKKYPDVDMAAAVTQIAGRQVAARKIPSWYPVSALWYPPHLSMEQCSSEATALYKASLLEGDTFADLTGGFGIDCSFISRNFKQADYVERQSGLCELALHNFPLLGLGHIRIHNRDGISYLQEMLPVDCLFLDPARRDGHGGKTVAISDCEPDVTVLEPLLVDKAKKVMVKLSPMLDLSLALNELKTVRAVHIVAVNNECKELLLILQKESVSSEVSIHCEHIAGNGESRHYTFTLKQEKTSPCLLADEVGTYLYEPNAAILKAGAFRSLTQTYPVAKLHLNSHLYTSVSLVPDFPGRRFRVEAVSGFGKKELKAFLMDMDKANITIRNFPLSVAELRKRLKLKEGGDDYIFATTLSGGQKVLIRGKKC”, for which the protein production entry was “not failed”.

On to “MEITDVRLRRVETDGRMKAISSITIDGEFVIHDIRVIDGNEGLFVAMPSKRTPDGEFRDIAHPINSGTRAKIQEAVLAAYEVADEPAVNEESSADESVVEEN”, for which the protein production entry is listed as “failed”.

For “MEKCDFYHIIVLSLNFPGYLKMEYGSTKMEERLSRSPGGKLALWAFYTWCGYFVWAMARYIWVMSRIPDAPVSGFESDLGSTAGKWLGALVGFLFMALVGALLGSIAWYTRPRPARSRRYE”, the protein production result is recorded as “failed”. With “MEKCSRETLLFIFITISSVATSTSTWMPMDGNYGASYCLSWRLAVETNNVRAWRIVPLQCLRYVEVYMLAGQYDRDVQLTVDQIKVYLNEIILPGDGMDAWILDVDDTCFSNVFYYRLKRYGCDPYDPTGFRTWAMKGESPAIQPVLELFYKLIETGFKVFLVTGRDEETLRQATLENLHNQGFTGYERLIMRTADNKRQSATTYKTRIRKEMMEEGYRIWGNVGDQWSDLQGEYSGDRTFKIPNPMYFVP”, the protein production result is recorded as “failed”.

Regarding “MEKESQTIFDKNVIEFVTVAAEFCAFLERAESMKRSTFVDTSLKILPLLYLKASMLPKCETIGDEAPETYVTEEIYEILRINLAGLMGDKDDYLDVFVQDMVYSDQPIKKSISEDLADIYQDIKDFIFVFQLGLNETMNDSLAICQENFGMLWGQKLVNTLRALHDVKYNLQDNEEEEENNEEGFYEPSEDDSCCEEGGCHCHDDECHCHEGSCHCHDDEK”, the protein production entry is “failed”. In the case of “MEKIIVRGGKRLNGTVRVEGAKNAVLPIIAAALLASDGKNVLSEVPVLSDVYTINEVLRHLNAEVVFENNQVTIDASKELNIEAPFEYVRKMRASVQVMGPLLARNGRARIALPGGCAIGSRPIDQHLKGFEAMGAKVQVGNGFVEAYVEGELKGAKIYLDFPSVGATENIMSAATLAKGTTILENAAKEPEIVDLANFLNAMGAKVRGAGTGTIRIEGVDKLYGANHSIIPDRIEAGTFMVAAAITGGDILIENAVPEHLRSITAKMEEMGVKIIEENEGVRVIGPDKLKAVDIKTMPHPGFPTDMQSQMMALLLQADGTSMITETVFENRFMHVEEFRRMNADIKIEGRSVIMNGPNSLQGAEVGATDLRAAAALILAGLVSEGYTRVTELKHLDRGYVDFHKKLAALGATIERVNEKVEEVKEQEVSDLHA”, the protein production entry is “not failed”.

With “MEKIRQPTHAGSWYTDNPTKLSSDLEEWLNATGLTKSPDVRGVIAPHAGYSYSGRAAAYAFANIDPTNISRIFLLGPSHHFYTPKCALSTATVYKTPIGNLPVDVEMIKEIRAMGKFGMMDLRVDEAEHSMEMHLPYLAKVFEGNNVKVVPILVGAVSPENEAMYGELLAKYVDDPKNFFSVSSDFCHWGSRFNYMHYDNTHGAIHKSIEALDKKGMDIIETGDPDAFKKYLLEFENTICGRHPISIFLHMLKHSSSKIKINFLRYEQSSQCQTMRDSSVSYASAAAKLET”, the protein production result is on record as “failed”.

As to “MEKKILKPLRKTVSELLCVICTSLLLISLFSFTALAGDINTSPNINSDDKISASVVSKLTEISGDEQIPVIITLPNQKIAFNTAAGKYQIESEQKNLIKFLENEKSKNKVNKIKPIKIINAVAAKVNPEVLASLAGRSDVSKIELDEVVSIVGQSEPSFKKIAASTTLSTAASTNAWGVDKIDAPAVWQQGINGKGITVAVVDTGIDATHPDLDDLDDNPSTNDPKVVGWVDYINSQSSAYDDNGHGTHVAGIVSGTGDNGIQTGVAPGTKLLVAKVFDSEGDGYLSTCILGFEWAVNNNARIISFSGGSPEHDSLFTTMINKVVAAGVVPVIAAGNDGDGSGTITCPGDELNSLTVGATDSSDAIADFSSRGPVTLDDQTYIKPDISAPGVSIPSTYPGDGYAYGDGTSMAAPHVSGTVALILEKKPTMTPAEVKKELESTAVDLGSAGKDNDYGSGRIDAYDAVFGKGPVANFYAKPTSGKVPLTVAFTDTSTGTPTKWRWNFGDGSKSFLQNPKHKYSKAGTYTVNLTVKNAKGKNTVTKTDYIVVISKPTAAFSASPTSGKAPLTVAFTDKSSGNPTAWKWSFGDGTISREKNPTHQYLQEGKYKITLTVSNAAGKSTTKKINYIKVTTNTRPGIYSESK”, the protein production result is “failed”. As to “MEKLEVGQLAPDFRLKNSDGVEISLKDLLHKKVVLYFYPKDNTPGCTLEAKDFSALFSEFEKKNAVVVGISPDNAQSHQKFISQCSLNVILLCDEDKKAANLYKAYGKRMLYGKEHLGIIRSTFIINTQGVLEKCFYNVKAKGHAQKVLESL”, the protein production result is recorded as “failed”.

For the sequence “MEKQPNKLIREKSPYLLQHAWNPVDWHPWGEEAFSRARETGRPIFLSSGYSTCHWCHVMEHESFENAETAALLNRHFVPVKLDREEHPDVDHLYMMFVQATTGRGGWPMSVWMTPDLKPFFGGSYFPATERWGMPSFRSVLEHLANLWEHDRPRLLASAGSIMDQLSGLTRP”, the protein production entry is reported as “failed”. For “MEKQSPTALPGTPITDMPAAAETLLALMHAQAEVARLSEREQLFSSLLVSVNAVLWAFDWETQRMIYVSPAYEHIFGRSAGLLLADYSEWRDSIYPDDLNYAERSLSEVIEKGAVEDREYRIIRADGEVRWLSDKCFVSHRADASQRLIVVGIAEDITDKKHLEDELQRLATTDVLTQSSNRRHFFECAQREFELARLNGTPLAFLLLDIDDFKLVNDTYGHQEGDTVLQRIAESGRSALRRGDLFGRIGGEEFAAVFPGCAPEMAMQIAERLQREIQRQNFQANGSTFSITASQGLTNLGPEDQGLEALYGRADAAMYQAKRQGKNQIVLV” the value was “failed”; for “MEKSAGRGRPSVSVERIVATALEAVDEVGAQAFNMRMLAERLGSGTATLYRHFASKDEILIYVVDSVLGELLADQPEAVELVPQGQGSEGYSWQKACASGAERLYGVLRRHPGILPLLVSQIPIGPNGLKRREQGIALFLANGFPAELAARAYTSVAHYVLGFAIQQHSSASSEAAEGEELVEFFAALDASEYPAIATAGRHLPGISVEEEFRFGLKLIIDGLELAASAWRKADGC”, “failed”.
